The target in the assay is HLA-DQ2.2 (DQA1*02:01/DQB1*02:02) with the covalently linked glutL1 peptide. Kind of assay: SPR; Biacore T200; biotinylated HLA-DQ2 molecules immobilised on a streptavidin chip (about 3000 RU), biotinylated HLA-DQ8glia-α1 in the reference cell; serial dilutions of TCR flowed at 10 μl/min in 20 mM HEPES pH 7.5, 150 mM NaCl, 1 mM EDTA, 0.005% TWEEN 20; steady-state KD, 1:1 (single ligand) binding model. On the technique in general: SPR reads the build-up and loss of mass on a sensor chip optically.

With G9 TCR, β-chain R75A, the Kd – broadly, the constant that tells how readily two partners part at equilibrium – amounted to 10.2 µM.
Then G9 TCR, β-chain S58A, with 7.8 µM.
